According to patent US20110077204A1, “Agent for Targeted Drug Delivery To Cerebral Neurons” (Kagoshima University, priority 2006, published 2011):

Legend:
raphe nuclei = details: in vivo; cited from earlier work
brain neurons [1] = details: rat, in vivo
brain neurons [2] = details: rat, in vivo; remark: listed apart in the source
brain parenchyma = details: injected directly into the cerebrospinal fluid; cited from earlier work

Molecule: N=C(N)c1ccc(/C=C/c2ccc(C(=N)N)cc2O)cc1 [fluorogold]
- Appearance of label in raphe nuclei (raphe nuclei): the label appeared in the raphe nuclei

Molecule: cholera toxin
- Appearance of label in raphe nuclei (raphe nuclei): the label appeared in the raphe nuclei

Molecule: cholera toxin B-subunit [CTB]
- Non-specific infiltration through brain surface or ventricle surface (brain neurons [1]): does not infiltrate indiscriminately through the brain surface or the ventricle surface
- Uptake by cerebellar Purkinje cells (brain neurons [1]): accumulated in the neurons of the raphe nuclei and Purkinje cells
- Uptake by other cell populations (cerebral neocortex, cerebral paleocortex, hypothalamus, thalamus, brainstem) (brain neurons [1]): incorporated
- Uptake by raphe nuclei neurons (brain neurons [1]): accumulated in the neurons of the raphe nuclei and Purkinje cells

Molecule: horseradish peroxidase [HRP]
- Detectable level of uptake of HRP label by neurons (brain neurons [2]): not confirmed

B1: glial cell line-derived neurotrophic factor (protein, UniProt P39905 78-211, looked up)
Glial cell line-derived …: SPDKQMAVLPRRERNRQAAAANPENSRGKGRRGQRGKNRGCVLTAIHLNVTDLGLGYETKEELIFRYCSGSCDAAETTYDKILKNLSRNRRLVSDKVGQACCRPIAFDDDLSFLDDNLVYHILRKHSAKRCGCI
notes: neurotrophic factor, literature report
- Effect on dopaminergic condition (brain parenchyma): can improve the dopaminergic condition
- Uptake by brain parenchyma (brain parenchyma): incorporated into brain parenchyma
